Laboratory results as given in publication PMC4966879.
Read-outs that look alike come from different tables or passages of the source.

Tests used:
Test in all cases: SAXS
[1] = molecular target: T1, HUαα (Escherichia coli, UniProt P0ACF0 1-90)
[2] = molecular target: T2, HUαβ (Escherichia coli, UniProt P0ACF0;P0ACF4 1-90;1-90)
[3] = molecular target: T2, HUαβ; remark: listed apart in the source
[4] = molecular target: HUαα G82E (Escherichia coli, UniProt P0ACF0 1-90, G82E)
[5] = molecular target: HUαα V45E (Escherichia coli, UniProt P0ACF0 1-90, V45E)
[6] = molecular target: T1, HUαα; remark: listed apart in the source
[7] = molecular target: HUα38α38 (Escherichia coli, UniProt P0ACF0 1-90, E38K;V42L)
[8] = molecular target: HUαα P63E (Escherichia coli, UniProt P0ACF0 1-90, P63E)

Measured: binding result

B1: 20-bp DNA (dsDNA)
DNA 1: GTTCAATTGTTGTTAACTTG
DNA 2: CAAGTTAACAACAATTGAAC
binds: [1] | [2]

B2: 80-bp DNA (dsDNA)
DNA 1: AATGAGGTAACAACGAAAGCAGATGATAGCTGCTTATCAATTTGTTGCAAACAAGTAGCCGCGCCCAATGAGGTAACAAT
DNA 2: ATTGTTACCTCATTGGGCGCGGCTACTTGTTTGCAACAAATTGATAAGCAGCTATCATCTGCTTTCGTTGTTACCTCATT
binds: [3] | [4] | [5] | [6] | [7] | [8]
